According to patent US20260356921 (published 2026):

Biological target: SARS-CoV (2003) RBD (SARS-CoV, UniProt P59594)
Assay: BLI

B1: VHH-Fc (antibody, V domains shown)
VH: QVQLQESGGGLVQTGGSLRLSCAASGSFFSINDMGWYRQAPGKQRELVAMITGDDSTNYADSVKGRFTISRDNLKNTVYLQMNSLKPEDTALYYCNAEVKVIIWDSRFNYYWGQGTQVTVSS
**Q.** With B1 as the binder, how does the Kd read?
**A.** The Kd was 13 nM.
